Measurements taken from article PMC4713133 (Molecular Biology of the Cell, 2016).

Legend:
Sec5-Myc = Sec5-Myc (rat, UniProt O54921 1-924); experiment: pull-down
Sec8-Myc = Sec8-Myc (rat, UniProt Q62824 1-975); experiment: pull-down
Sequence of Sec8-Myc (Q62824 whole entry): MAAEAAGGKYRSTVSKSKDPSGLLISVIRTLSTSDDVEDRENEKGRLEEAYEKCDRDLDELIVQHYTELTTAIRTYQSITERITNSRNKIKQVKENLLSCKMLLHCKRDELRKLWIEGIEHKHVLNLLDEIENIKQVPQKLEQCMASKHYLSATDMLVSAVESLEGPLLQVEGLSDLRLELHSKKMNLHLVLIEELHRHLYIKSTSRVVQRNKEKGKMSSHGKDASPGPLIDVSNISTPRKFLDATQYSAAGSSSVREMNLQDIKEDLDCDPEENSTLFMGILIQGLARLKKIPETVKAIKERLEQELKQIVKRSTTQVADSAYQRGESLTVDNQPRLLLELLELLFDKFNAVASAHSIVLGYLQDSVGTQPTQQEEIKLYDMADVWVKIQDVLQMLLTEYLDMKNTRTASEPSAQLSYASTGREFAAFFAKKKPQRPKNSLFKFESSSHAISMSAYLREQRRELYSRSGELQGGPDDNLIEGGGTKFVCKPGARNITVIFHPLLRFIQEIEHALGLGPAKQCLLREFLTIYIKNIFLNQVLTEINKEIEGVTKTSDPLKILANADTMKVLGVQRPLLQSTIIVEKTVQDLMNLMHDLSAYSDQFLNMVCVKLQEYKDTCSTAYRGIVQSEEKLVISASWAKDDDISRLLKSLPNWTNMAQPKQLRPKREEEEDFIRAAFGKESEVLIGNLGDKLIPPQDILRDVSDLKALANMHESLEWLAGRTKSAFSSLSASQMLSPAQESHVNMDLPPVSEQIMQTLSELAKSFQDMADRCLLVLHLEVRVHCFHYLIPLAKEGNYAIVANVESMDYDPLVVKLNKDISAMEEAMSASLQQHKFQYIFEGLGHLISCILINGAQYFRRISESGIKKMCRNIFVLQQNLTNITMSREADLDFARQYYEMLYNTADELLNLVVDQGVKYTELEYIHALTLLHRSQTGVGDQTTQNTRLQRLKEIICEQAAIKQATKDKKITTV

Sequence of Sec5-Myc (O54921 whole entry): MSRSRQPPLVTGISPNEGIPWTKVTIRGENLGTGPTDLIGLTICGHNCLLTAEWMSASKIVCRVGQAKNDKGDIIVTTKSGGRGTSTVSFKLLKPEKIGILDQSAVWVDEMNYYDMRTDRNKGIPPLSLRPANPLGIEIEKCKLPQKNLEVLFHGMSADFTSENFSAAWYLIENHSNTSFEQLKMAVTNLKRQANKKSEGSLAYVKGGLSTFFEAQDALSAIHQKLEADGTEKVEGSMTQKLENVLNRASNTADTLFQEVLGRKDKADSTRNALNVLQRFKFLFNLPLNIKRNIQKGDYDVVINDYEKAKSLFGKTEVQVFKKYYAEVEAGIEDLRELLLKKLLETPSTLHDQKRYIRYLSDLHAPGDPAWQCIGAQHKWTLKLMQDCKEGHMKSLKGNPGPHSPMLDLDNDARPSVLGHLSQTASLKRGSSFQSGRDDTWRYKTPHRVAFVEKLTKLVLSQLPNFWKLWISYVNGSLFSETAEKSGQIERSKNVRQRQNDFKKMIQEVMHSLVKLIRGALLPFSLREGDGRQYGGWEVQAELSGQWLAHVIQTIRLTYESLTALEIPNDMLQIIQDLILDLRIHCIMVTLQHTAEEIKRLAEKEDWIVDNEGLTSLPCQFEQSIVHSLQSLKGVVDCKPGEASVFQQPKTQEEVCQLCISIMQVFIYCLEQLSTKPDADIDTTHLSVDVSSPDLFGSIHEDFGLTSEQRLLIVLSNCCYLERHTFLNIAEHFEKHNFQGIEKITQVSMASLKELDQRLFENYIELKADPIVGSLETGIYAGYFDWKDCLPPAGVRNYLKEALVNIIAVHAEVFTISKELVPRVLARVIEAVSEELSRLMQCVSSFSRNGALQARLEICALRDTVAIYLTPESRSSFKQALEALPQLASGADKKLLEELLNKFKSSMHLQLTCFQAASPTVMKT

B1: Arl13b-GST (natural protein)
chain: not shown
binding result (Sec5-Myc): binds
binding result (Sec8-Myc): binds
